One block for each substance: values may come before it.
Columns and labels:
hFGFR3b.mmh (human) = hFGFR3b.mmh (human) (UniProt P22607); experiment: SPR (Biacore) kinetics, mAb captured, hFGFR3b.mmh as analyte
hCD63.mmh (human) = hCD63.mmh (human) (UniProt P08962); experiment: SPR (Biacore) kinetics, mAb captured, hCD63.mmh as analyte
hAPLP2.mmh (human) = hAPLP2.mmh (human) (UniProt Q06481); experiment: SPR (Biacore) kinetics, mAb captured, hAPLP2.mmh as analyte
[1] = molecular target: human FGFR1c and human KLB co-expressed on HEK293 cells (human) (UniProt P11362); experiment: cell-based or functional assay
Sequence of UniProt P11362 (P11362 22-376): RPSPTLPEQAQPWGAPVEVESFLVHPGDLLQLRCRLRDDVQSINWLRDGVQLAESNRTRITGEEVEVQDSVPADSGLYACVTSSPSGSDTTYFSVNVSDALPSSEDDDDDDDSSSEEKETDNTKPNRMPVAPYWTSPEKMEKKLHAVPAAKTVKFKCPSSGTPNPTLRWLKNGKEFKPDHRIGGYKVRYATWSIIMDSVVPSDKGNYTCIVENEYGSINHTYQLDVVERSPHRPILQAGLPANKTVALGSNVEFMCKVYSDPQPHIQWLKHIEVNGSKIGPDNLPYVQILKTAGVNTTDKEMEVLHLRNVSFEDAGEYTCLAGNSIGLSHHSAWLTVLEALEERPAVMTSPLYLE

hFGFR1c_V5_6×His (human) = hFGFR1c_V5_6×His (human) (UniProt P11362); experiment: SPR (Biacore), antibody captured on anti-human Fc (REGN2567) CM5 chip, hFGFR1c_V5_6xHis injected, 25 C, 1:1 fit
hKLB.HA.6×His (human) = hKLB.HA.6×His (human) (UniProt Q86Z14); experiment: SPR (Biacore), antibody captured on anti-human Fc (REGN2567) CM5 chip, hKLB.HA.6xHis injected, 25 C, 1:1 fit

- 100 nM Antigen Bound (RU) (hFGFR3b.mmh (human)): 1.8 RU
- 100 nM Antigen Bound (RU) (hCD63.mmh (human)): 0.5 RU
- 100 nM Antigen Bound (RU) (hAPLP2.mmh (human)): -0.5 RU
Substance: REGN1945 (antibody)

- % Act, SRE-luciferase reporter [1]: 42%
- agonist activity relative to hFGF21, SRE-luciferase reporter [1]: 30%
Substance: REGN4304 (bispecific antibody)

- 100 nM Antigen Bound (RU) (hFGFR1c_V5_6×His (human)): 50 RU
- Kd (hFGFR1c_V5_6×His (human)): 539 nM
- koff (hFGFR1c_V5_6×His (human)): 0.0247 s⁻¹
- kon (hFGFR1c_V5_6×His (human)): 45900 M⁻¹ s⁻¹
- 100 nM Antigen Bound (RU) (hKLB.HA.6×His (human)): 411 RU
- Kd (hKLB.HA.6×His (human)): 25.5 nM
- koff (hKLB.HA.6×His (human)): 0.0122 s⁻¹
- kon (hKLB.HA.6×His (human)): 476000 M⁻¹ s⁻¹
- % activation normalized against soluble FGF21, SRE-luciferase reporter [1]: 19%
- agonist activity relative to hFGF21, SRE-luciferase reporter [1]: 30%
Substance: REGN4366 (bispecific antibody)

- % Act, SRE-luciferase reporter [1]: 100%
- % Activity of (FGF21), SRE-luciferase reporter [1]: 100%
- EC50 (M), SRE-luciferase reporter [1]: 3.4e-09 M
Substance: Recombinant human FGF21 with 6×His tag (from UniProt Q9NSA1 29-209) (ligand)

From patent US20210130477A1
